Bridge positions count the residues as written; N and C are the ends. Square brackets hold non-standard residues; d marks the D form. Ends that are not written are not given here. Aib = CC(C)(N)C(=O)O
T1: human GIP receptor (human, UniProt P48546 22-466)
T1 sequence (looked up): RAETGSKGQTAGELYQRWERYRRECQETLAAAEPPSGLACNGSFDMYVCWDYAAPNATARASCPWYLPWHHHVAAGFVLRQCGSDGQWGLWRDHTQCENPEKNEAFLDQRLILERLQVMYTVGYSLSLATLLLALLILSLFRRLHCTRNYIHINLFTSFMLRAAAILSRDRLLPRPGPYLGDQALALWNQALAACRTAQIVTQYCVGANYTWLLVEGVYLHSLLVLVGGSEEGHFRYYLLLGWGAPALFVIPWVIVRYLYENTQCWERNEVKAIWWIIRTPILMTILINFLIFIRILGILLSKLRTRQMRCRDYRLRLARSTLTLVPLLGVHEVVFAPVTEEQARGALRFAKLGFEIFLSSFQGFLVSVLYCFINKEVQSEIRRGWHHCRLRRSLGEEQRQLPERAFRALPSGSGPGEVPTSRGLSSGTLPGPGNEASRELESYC


These binders were tested against human GCG receptor (human, UniProt P47871 26-477) (assay: cell-based or functional assay).
human GCG receptor, sequence (P47871 26-477): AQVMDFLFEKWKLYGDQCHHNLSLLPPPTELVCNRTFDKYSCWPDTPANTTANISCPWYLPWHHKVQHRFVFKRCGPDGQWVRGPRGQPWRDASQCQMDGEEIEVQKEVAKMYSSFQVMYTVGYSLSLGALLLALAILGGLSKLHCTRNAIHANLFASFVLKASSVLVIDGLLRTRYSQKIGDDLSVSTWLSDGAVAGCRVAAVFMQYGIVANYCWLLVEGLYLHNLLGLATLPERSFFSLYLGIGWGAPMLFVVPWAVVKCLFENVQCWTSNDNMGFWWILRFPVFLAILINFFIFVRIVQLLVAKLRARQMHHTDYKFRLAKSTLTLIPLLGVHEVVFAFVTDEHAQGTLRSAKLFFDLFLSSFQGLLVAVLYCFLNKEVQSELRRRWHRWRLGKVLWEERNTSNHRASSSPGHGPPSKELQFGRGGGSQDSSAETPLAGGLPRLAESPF

Binder	In vitro activity compared with native peptide (%) vs Glucagon (cAMP EC50)
H[Aib]EGTFTSDYSIAMDEIHQKDFVDWLLAEC (bridge 16-20) [triple agonist of SEQ ID NO: 54]	1.4%
H[Aib]QGTFTSDYSKYLDEKRQKEFVQWLLNTC (bridge 16-20) [triple agonist of SEQ ID NO: 51]	2%
H[Aib]EGTFTSDYSIAMDEIHQKDFVNWLLAQC (bridge 16-20) [triple agonist of SEQ ID NO: 53]	8.4%
Y[Aib]QGTFTSDYSKYLDEKRAKEFVQWLLDHHCSSGQPPPS (not fully specified (bridges)) [triple agonist of SEQ ID NO: 43]	88.4%
H[Aib]QGTFTSDYSIAMDEIHQKDFVNWLLNTC (bridge 16-20) [triple agonist of SEQ ID NO: 57]	< 0.1%
H[Aib]QGTFTSDKSKYLDECAAQDFVQWLLDGGPSSGAPPPS [triple agonist of SEQ ID NO: 41]	< 0.1%
H[Aib]QGTFTSDYSKYLDEKRQKEFVQWLLNTKC (bridge 16-20) [triple agonist of SEQ ID NO: 58]	2.6%
H[Aib]QGTFTSDYSIAMDEIHQKDFVNWLLAQC (bridge 16-20) [triple agonist of SEQ ID NO: 55]	0.7%
H[Aib]QGTFTSDVSSYLDGQAAKEFVAWLLKGC [triple agonist of SEQ ID NO: 6]	< 0.1%
H[Aib]QGTFTSDYSKYLDEKRQKEFVNWLLAQKC (bridge 16-20) [triple agonist of SEQ ID NO: 34]	0.92%
HGQGTFTSDCSKQLDGQAAQEFVAWLLAGGPSSGAPPPS [triple agonist of SEQ ID NO: 44]	< 0.1%
HGQGTFTSDCSKYLDGQRAQDFVNWLLAGGPSSGAPPPS [triple agonist of SEQ ID NO: 48]	< 0.1%
HGQGTFTSDCSKYLDGQRAQEFVAWLLAGGPSSGAPPPS [triple agonist of SEQ ID NO: 47]	< 0.1%
HGQGTFTSDCSKYLDEQHAQEFVAWLLAGGPSSGAPPPS [triple agonist of SEQ ID NO: 46]	< 0.1%

Each binder was assayed against human GLP-1 receptor (human, UniProt P43220 24-463) (assay: cell-based or functional assay).

Binder	In vitro activity compared with native peptide (%) vs GLP-1 (cAMP EC50)
H[Aib]EGTFTSDYSIAMDEIHQKDFVDWLLAEC (bridge 16-20) [triple agonist of SEQ ID NO: 54]	30.6%
H[Aib]QGTFTSDYSKYLDEKRQKEFVQWLLNTC (bridge 16-20) [triple agonist of SEQ ID NO: 51]	14.4%
H[Aib]EGTFTSDYSIAMDEIHQKDFVNWLLAQC (bridge 16-20) [triple agonist of SEQ ID NO: 53]	161%
Y[Aib]QGTFTSDYSKYLDEKRAKEFVQWLLDHHCSSGQPPPS (not fully specified (bridges)) [triple agonist of SEQ ID NO: 43]	12.6%
H[Aib]QGTFTSDYSIAMDEIHQKDFVNWLLNTC (bridge 16-20) [triple agonist of SEQ ID NO: 57]	11.7%
H[Aib]QGTFTSDKSKYLDECAAQDFVQWLLDGGPSSGAPPPS [triple agonist of SEQ ID NO: 41]	34.3%
H[Aib]QGTFTSDYSKYLDEKRQKEFVQWLLNTKC (bridge 16-20) [triple agonist of SEQ ID NO: 58]	39.1%
H[Aib]QGTFTSDYSIAMDEIHQKDFVNWLLAQC (bridge 16-20) [triple agonist of SEQ ID NO: 55]	27.1%
H[Aib]QGTFTSDVSSYLDGQAAKEFVAWLLKGC [triple agonist of SEQ ID NO: 6]	17%
H[Aib]QGTFTSDYSKYLDEKRQKEFVNWLLAQKC (bridge 16-20) [triple agonist of SEQ ID NO: 34]	19.1%
HGQGTFTSDCSKQLDGQAAQEFVAWLLAGGPSSGAPPPS [triple agonist of SEQ ID NO: 44]	1.3%
HGQGTFTSDCSKYLDGQRAQDFVNWLLAGGPSSGAPPPS [triple agonist of SEQ ID NO: 48]	1.5%
HGQGTFTSDCSKYLDGQRAQEFVAWLLAGGPSSGAPPPS [triple agonist of SEQ ID NO: 47]	2.4%
HGQGTFTSDCSKYLDEQHAQEFVAWLLAGGPSSGAPPPS [triple agonist of SEQ ID NO: 46]	1.4%

What follows are binders tested against T1, human GIP receptor (assay: cell-based or functional assay).

Binder	In vitro activity compared with native peptide (%) vs GIP (cAMP EC50)
H[Aib]EGTFTSDYSIAMDEIHQKDFVDWLLAEC (bridge 16-20) [triple agonist of SEQ ID NO: 54]	0.1%
H[Aib]QGTFTSDYSKYLDEKRQKEFVQWLLNTC (bridge 16-20) [triple agonist of SEQ ID NO: 51]	0.1%
H[Aib]EGTFTSDYSIAMDEIHQKDFVNWLLAQC (bridge 16-20) [triple agonist of SEQ ID NO: 53]	1.3%
Y[Aib]QGTFTSDYSKYLDEKRAKEFVQWLLDHHCSSGQPPPS (not fully specified (bridges)) [triple agonist of SEQ ID NO: 43]	3.7%
H[Aib]QGTFTSDYSIAMDEIHQKDFVNWLLNTC (bridge 16-20) [triple agonist of SEQ ID NO: 57]	0.3%
H[Aib]QGTFTSDKSKYLDECAAQDFVQWLLDGGPSSGAPPPS [triple agonist of SEQ ID NO: 41]	< 0.1%
H[Aib]QGTFTSDYSKYLDEKRQKEFVQWLLNTKC (bridge 16-20) [triple agonist of SEQ ID NO: 58]	0.2%
H[Aib]QGTFTSDYSIAMDEIHQKDFVNWLLAQC (bridge 16-20) [triple agonist of SEQ ID NO: 55]	2.4%
H[Aib]QGTFTSDVSSYLDGQAAKEFVAWLLKGC [triple agonist of SEQ ID NO: 6]	< 0.1%
H[Aib]QGTFTSDYSKYLDEKRQKEFVNWLLAQKC (bridge 16-20) [triple agonist of SEQ ID NO: 34]	0.6%
HGQGTFTSDCSKQLDGQAAQEFVAWLLAGGPSSGAPPPS [triple agonist of SEQ ID NO: 44]	< 0.1%
HGQGTFTSDCSKYLDGQRAQDFVNWLLAGGPSSGAPPPS [triple agonist of SEQ ID NO: 48]	< 0.1%
HGQGTFTSDCSKYLDGQRAQEFVAWLLAGGPSSGAPPPS [triple agonist of SEQ ID NO: 47]	< 0.1%
HGQGTFTSDCSKYLDEQHAQEFVAWLLAGGPSSGAPPPS [triple agonist of SEQ ID NO: 46]	< 0.1%

From patent US20240293512A1 (HANMI PHARM, published 2024)
